Test results reported in patent publication US20210347908A1 (ELPISCIENCE SUZHOU BIOPHARMA, published 2021).
Substitutions are numbered along the chain they refer to. Where two headings read alike, the source gives them in different places.

T1: full length C57BL/6 mouse SIRPα stably expressed on CHOK1 cells (mouse (C57BL/6), UniProt P97797 32-513)
T1 construct: whole, on cells; also called CHOK1-C57BL/6 mouse SIRPα-2.22 cells
T1 sequence (looked up): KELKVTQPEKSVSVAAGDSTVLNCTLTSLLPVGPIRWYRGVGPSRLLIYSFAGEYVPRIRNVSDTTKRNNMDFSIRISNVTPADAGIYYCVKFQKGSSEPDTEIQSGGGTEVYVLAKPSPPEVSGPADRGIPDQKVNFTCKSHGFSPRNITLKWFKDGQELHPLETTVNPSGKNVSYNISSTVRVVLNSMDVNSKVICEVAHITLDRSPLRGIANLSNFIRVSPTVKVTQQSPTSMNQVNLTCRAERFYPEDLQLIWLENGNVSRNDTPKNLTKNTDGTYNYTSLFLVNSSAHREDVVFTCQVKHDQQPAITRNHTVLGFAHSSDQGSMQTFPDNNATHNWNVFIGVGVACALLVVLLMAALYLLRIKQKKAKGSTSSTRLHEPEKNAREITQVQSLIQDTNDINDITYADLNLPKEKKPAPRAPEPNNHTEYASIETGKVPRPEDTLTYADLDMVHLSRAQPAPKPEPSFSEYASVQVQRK

B1: Antibody 060 (hybridoma antibody) (antibody, V domains shown)
VH: QVQLKESGPGLVAPSESLSITCTVSGFSLTNYDISWIRQSPGKGLEWLGVIWTGGDTNFNSAFMSRLSISKDKSKSQVFLKLNSLQTDDTAIYYCVRVQYFGGSYGPMDYWGQGISVTVSS
VL: DIQMTQASSYLSVSLGGRVTITCEASDHINDWLAWYQQTPGNAPRLLISGATSLETGVPSRFSGSGSGKDYTLSITSLQTEDIATYYCQQYWNTPLTFGAGTRLELK
notes: mouse hybridoma antibody
B2: Antibody 074 (hybridoma antibody) (antibody, V domains shown)
VH: QVQLQQPRAELVKPGASVMLSCKASGYTFSSYWIHWVRQGPGQGLEWIGLIHPNSGNTDCSETFKNKATLTVDTSSSTAYMQLSSLASEDSAVYYCARDGASYDWFVHWGQGTLVTVSA
VL: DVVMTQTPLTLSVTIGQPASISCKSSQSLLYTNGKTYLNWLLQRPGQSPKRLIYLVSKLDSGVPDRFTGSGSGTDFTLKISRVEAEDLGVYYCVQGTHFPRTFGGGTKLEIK
notes: mouse hybridoma antibody
B3: Antibody 050 (hybridoma antibody) (antibody, V domains shown)
VH: QIQLVQSGPELKKPGETVKISCKASGYTFTHYSMHWVKQAPGKGLKWMGWINTETAEPTYVDDFKGRFAFSLEASASTAFFQINNLKNEDTATYFCARGGLRQGDYWGQGTTLTVSS
VL: QIVLTQSPPIMSASPGEKVTLTCSATSSVSASYLYWFQQKPGSSPKLWIYSTSNLASGVPARFSGSGSGTSYSLTISNMEPADAASYFCHQWSSYPYTFGGGTKLEIK
notes: mouse hybridoma antibody
B4: Antibody 035 (hybridoma antibody) (antibody, V domains shown)
VH: QIQLVQSGPELRKPGETVKISCKASGYSFTNYAMNWVKQAPGKVLKWMGFINTYTGEPTYADDFKGRFAFSLETSASTAYLQINNLKNEDTATYFCTRTRGYYDFDGGAFDYWGQGTSLTVSS
VL: DIVMTQSQKFMSTSIGDRVSVTCKASQNVGTHLAWYQQKPGQSPKALIFSASYRYIGVPDRFTGSGSGTDFTLTITNVQSEDLAEYFCQQYNTYPLTFGAGTKLELK
notes: mouse hybridoma antibody
B5: Antibody 022 (hybridoma antibody) (antibody, V domains shown)
VH: QIQLVQSGPELKKPGETVKISCKASGYTFTDYAMHWVKQAPGKGLKWMGWKNTETGESTYAEDFKGRFAFFLETSASTAYLQINNVKNEDTATYFCARGGYGSNYVMDYWGQGTSVIVSS
VL: DIQMTQSSSSFSVSLGDRVTITCKASEDIYNRLAWYQQKPGNAPRLLISGATSLETGVPSRFSGSGSGKDYTLSITSLQTEDVATYYCQQYWNSPRTFGGGTKLEIK
notes: mouse hybridoma antibody
B6: chimeric antibody 001c (antibody, V domains shown)
VH: EVKLEESGGGLVQPGGSMKLSCVASGFTFRNYWMNWVRQSPERGLEWIAEISLKSNTYATHYAESVKGRFAISRDGSKSSFYLQMNDLRAEDTGIYYCTTFTKVVADWHLDVWGAGTTVTVSS
VL: DVLMTQTPLSLPVSLGDQASISCRSSQNIVHSNGNTYLEWYLQKPGQSPKLLIYKVSNRFSGVPDRFSGSGSGTDFTLRISRVEAEDLGVYYCFQGSHVPFTFGSGTKLEIK
B7: Antibody 001 (hybridoma antibody) (antibody, V domains shown)
VH: B6 VH
VL: B6 VL
notes: mouse hybridoma antibody
B8: chimeric antibody 002c (antibody, V domains shown)
VH: B6 VH with K19I, S52T, G76D, A90P
VL: B6 VL with V56I, K112Q
B9: Antibody 002 (hybridoma antibody) (antibody, V domains shown)
VH: B6 VH with K19I, S52T, G76D, A90P
VL: B6 VL with V56I, K112Q
notes: mouse hybridoma antibody
B10: Antibody 032 (hybridoma antibody) (antibody, V domains shown)
VH: B6 VH with K3R, A24V, S52T, G76D, A90P
VL: B6 VL with S14N
notes: mouse hybridoma antibody

Key:
[1] = target: T2, biotin labeled soluble human SIRPα v1 ECD recombinant protein (human, UniProt P78324 31-373, biotin labeled); assay: competitive ELISA; competitor 050
T2 construct: extracellular domain
Experimental: (§1) Competitive ELISA assay was used for epitope binning of 9 functional antibodies. Briefly excessive competitor antibody and biotin labeled soluble human SIRPα v1 ECD recombinant protein were co-incubated with ELISA microplate coated antibody. After washing, HRP-SA was added and incubated at 37° C. for 1 hour. Then, […] of TMB solution (Biotechnology) was added. After incubation for 15 minutes at room temperature, the reaction was stopped by the addition of […] of 1N HCl. OD 450 nm was read. Competition ratio was calculated. The antibodies that can compete each other for binding to SIRPα have the similar binding epitope.

[2] = target: T2, biotin labeled soluble human SIRPα v1 …; assay: competitive ELISA; competitor HEFLB
Experimental: as §1

[3] = target: T3, full length human SIRPα v1 stably expressed on CHOK1 cells (human, UniProt P78324 31-504); assay: FACS on CHOK1 cells
T3 construct: whole, on cells; also called CHOK1-human SIRPα v1-1B4 cells; CHOK1-human SIRPα v1

[4] = target: T2, biotin labeled soluble human SIRPα v1 …; assay: competitive ELISA; competitor 29-AM4-5
Experimental: as §1

[5] = target: T2, biotin labeled soluble human SIRPα v1 …; assay: competitive ELISA; competitor 055
Experimental: as §1

[6] = target: T1, full length C57BL/6 mouse SIRPα stably …; assay: FACS on CHOK1 cells
Experimental: (§2) Species cross reactivity of the purified hybridoma antibodies against human, cyno and mouse SIRPα was determined by FACS assay using CHOK1-human SIRPα v1-1B4 cells, CHOK1-cyno SIRPα-2A2 cells, and CHOK1-C57BL/6 mouse SIRPα-2.22 cells, which stably expressing SIRPα protein. Briefly the antibodies were incubated with 2×10⁵ target cells at 4° C. for 1 hour. After washing, fluorescence labeled anti-mouse or anti-human IgG 2nd antibody (Life Technologies) was added and incubated at 4° C. for 1 hour. Geometric median fluorescence intensity was detected and EC₅₀ was calculated. In particular, it is noted, in contrast to the other antibodies tested in the same experiment, 060 cannot bind with cyno SIRPα and 035 has cross reactivity against C57BL/6 mouse SIRPα.
(§3) The purified chimeric antibodies were applied for binding specificity analysis and species cross reactivity analysis (refer to methods described in Example 3.3 and 3.4). FIGS. 1A to 1D show binding specificity of anti-SIRPα chimeric antibodies against recombinant proteins of human SIRPα v1 ECD (A), human SIRPα v2 ECD (B), human SIRPβ ECD (C) and human SIRPγ ECD (D) as measured by ELISA analysis.

[7] = target: T3, full length human SIRPα v1 stably …; assay: FACS on CHOK1 cells; remark: listed apart in the source
Experimental: as §2, §3

[8] = target: T4, Fc tagged human SIRPα v1 ECD recombinant protein (human, UniProt P78324 31-370); assay: ELISA
T4 construct: range 1-370; cloned range M1-R370 includes the signal peptide; also called hSIRPα V1; not shown: human IgG Fc region (hFc) of the pCPC vector
Experimental: (§4) Binding specificity of the purified hybridoma antibodies against SIRP family members was detected by ELISA assay using recombinant proteins of Fc tagged human SIRPα v1 ECD, human SIRPα v2 ECD, human SIRPβ ECD and human SIRPγ ECD. Briefly the antibodies were incubated with ELISA microplate coated antigens at 37° C. for 1 hour. After washing, horseradish peroxidase (HRP) labeled anti-mouse or anti-human IgG 2nd Ab (Sigma) was added and incubated at 37° C. for 1 hour. Then, 100 μl/well of TMB solution (Biotechnology) was added. After incubation for 15 minutes at room temperature, the reaction was stopped by the addition of 50 μl of 1N HCl. OD 450 nm was read and EC₅₀ was calculated. Other than 060 and HEFLB, all of the antibodies as tested can bind with both human SIRPα v1 and SIRPα v2. 060 and HEFLB can bind with human SIRPα v1 but not v2. Other than 055, all of the antibodies as tested can bind with human SIRPβ. In comparison with other known anti-SIRPα antibodies, only 022, 035 and 050 can bind with human SIRPγ weakly.
as §3

[9] = target: T3, full length human SIRPα v1 stably …; assay: FACS on CHOK1 cells; remark: listed apart in the source
Experimental: as §2, with “SIRPα. […]” for “SIRPα.”

[10] = target: T4, Fc tagged human SIRPα v1 ECD …; assay: ELISA; remark: listed apart in the source
Experimental: as §4, §3

T2 sequence (P78324 31-373): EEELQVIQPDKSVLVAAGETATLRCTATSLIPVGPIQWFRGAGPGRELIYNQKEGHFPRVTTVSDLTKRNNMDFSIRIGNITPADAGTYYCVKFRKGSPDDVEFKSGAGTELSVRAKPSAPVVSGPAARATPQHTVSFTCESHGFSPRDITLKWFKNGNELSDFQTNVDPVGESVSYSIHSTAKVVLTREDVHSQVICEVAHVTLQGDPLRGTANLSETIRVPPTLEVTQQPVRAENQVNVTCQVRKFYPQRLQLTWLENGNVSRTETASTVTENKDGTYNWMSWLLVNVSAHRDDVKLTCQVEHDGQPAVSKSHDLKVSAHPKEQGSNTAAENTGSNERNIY
T4 sequence (P78324 31-370 limits assumed): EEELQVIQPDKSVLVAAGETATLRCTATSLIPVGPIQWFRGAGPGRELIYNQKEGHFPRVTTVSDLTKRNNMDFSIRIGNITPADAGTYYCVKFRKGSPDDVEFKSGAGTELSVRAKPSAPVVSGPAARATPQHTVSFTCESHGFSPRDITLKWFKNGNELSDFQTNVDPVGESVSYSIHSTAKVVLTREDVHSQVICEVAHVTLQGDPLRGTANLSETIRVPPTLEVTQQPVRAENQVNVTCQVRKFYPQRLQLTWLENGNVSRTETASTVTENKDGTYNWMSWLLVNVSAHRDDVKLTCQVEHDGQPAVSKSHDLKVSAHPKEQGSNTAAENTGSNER
T3 sequence (P78324 31-504): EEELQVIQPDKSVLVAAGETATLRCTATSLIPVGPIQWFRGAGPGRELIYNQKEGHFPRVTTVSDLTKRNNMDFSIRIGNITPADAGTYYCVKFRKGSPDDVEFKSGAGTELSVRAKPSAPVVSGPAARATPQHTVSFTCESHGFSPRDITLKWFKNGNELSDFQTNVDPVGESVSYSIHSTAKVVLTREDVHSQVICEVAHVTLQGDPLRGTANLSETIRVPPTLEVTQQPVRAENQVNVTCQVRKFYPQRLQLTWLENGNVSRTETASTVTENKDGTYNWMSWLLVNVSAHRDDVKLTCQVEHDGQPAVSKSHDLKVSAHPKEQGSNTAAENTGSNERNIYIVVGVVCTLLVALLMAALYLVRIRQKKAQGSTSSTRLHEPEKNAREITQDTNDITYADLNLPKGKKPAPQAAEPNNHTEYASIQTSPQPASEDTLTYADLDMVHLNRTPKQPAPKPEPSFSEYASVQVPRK

| Binder | % Competition [1] | % Competition [2] | EC50 [3] | % Competition [4] | % Competition [5] | binding result [6] | EC50 [7] | EC50 [8] | EC50 [9] | EC50 [10] |
| --- | --- | --- | --- | --- | --- | --- | --- | --- | --- | --- |
| B1 | 14% | -3% | 0.9 nM | -5% | 7% |  |  |  |  |  |
| B2 | 7% | -14% | 1 nM | -19% | -17% |  |  |  |  |  |
| B3 | 83% | -14% | 1.3 nM | -6% | -16% |  |  |  |  |  |
| B4 | -3% | 2% | 0.7 nM | 50% | -1% |  |  |  |  |  |
| B5 | 79% | 1% | 2.1 nM | 2% | 1% |  |  |  |  |  |
| B6 |  |  |  |  |  | no binding (tested: 10 nM) | 1.7 nM | 0.12 nM | 1.7 nM | 0.12 nM |
| B7 | 5% | 36% | 1 nM | 92% | 4% |  |  |  |  |  |
| B8 |  |  |  |  |  | no binding (tested: 10 nM) | 2.4 nM | 0.06 nM | 2.4 nM | 0.06 nM |
| B9 | -13% | 7% | 1 nM | 87% | -16% |  |  |  |  |  |
| B10 | 4% | 14% | 0.4 nM | 83% | 3% |  |  |  |  |  |
